Each block holds one binder with its values, some of them ahead of it.
Experiments:
[1] = biological target: T1, human CD38 expressed on multiple myeloma cells (KMS11, MM1.S) (human, UniProt P28907 1-300); assay: flow cytometry on MM.1S wt cells
T1 construct: whole, on cells; Naturally expressed on KMS11 and MM1.S cell lines; a CD38 knock out MM.1S line served as negative control
T1 sequence (looked up): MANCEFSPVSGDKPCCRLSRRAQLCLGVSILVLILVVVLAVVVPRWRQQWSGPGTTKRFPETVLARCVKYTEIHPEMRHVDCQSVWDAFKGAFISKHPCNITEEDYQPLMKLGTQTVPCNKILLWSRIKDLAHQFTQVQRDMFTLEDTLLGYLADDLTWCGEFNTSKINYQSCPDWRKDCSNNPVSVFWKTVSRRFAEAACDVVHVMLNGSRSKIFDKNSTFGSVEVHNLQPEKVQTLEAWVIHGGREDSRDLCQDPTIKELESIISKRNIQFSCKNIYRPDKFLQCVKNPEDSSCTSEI

[2] = biological target: T1, human CD38 expressed on multiple …; assay: flow cytometry on KMS11 wt cells
human CD38 protein = biological target: T2, human CD38 protein (human, UniProt P28907 43-300); assay: ELISA, plate coated with human CD38 protein, absorbance at 650 nm
T2 sequence (looked up): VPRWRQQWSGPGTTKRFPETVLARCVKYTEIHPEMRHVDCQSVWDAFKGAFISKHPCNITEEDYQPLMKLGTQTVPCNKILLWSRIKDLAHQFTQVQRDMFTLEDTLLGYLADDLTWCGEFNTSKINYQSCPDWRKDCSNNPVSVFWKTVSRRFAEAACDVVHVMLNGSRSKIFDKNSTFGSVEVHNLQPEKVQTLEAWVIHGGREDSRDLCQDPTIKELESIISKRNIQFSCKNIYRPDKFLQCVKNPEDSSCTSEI
Experimental: Binding of the humanized antibody to human CD38 was tested. The ELISA plate was coated with 0.1 mg/well of human CD38 protein. 1t antibody (humanized anti-aNKp46 antibody or humanized anti-CD38 antibody) was added at 0.1 mg/well. Secondary antibody was diluted 1:7500. After addition of Streptavidin-HRP and TMB substrate the optical absorbance was measured at 650 nm.

EC50 (read off the curve) [1]: ~0.3 µg/mL
EC50 (read off the curve) [2]: ~0.2 µg/mL
B1: NKE2 with wild type (WT) Fc (bispecific antibody, human IgG1, kappa)
heavy: not shown
light 1: DIVMTQSPATLSLSPGERATLSCRASQSISDYLHWFQQKPHESPRLLIKYASQSISGIPARFSGSGSGSDFTLTISSLEPEDFAVYYCQNGHSFPLTFGPGTKVDIKRTVAAPAVFIFPPSDEQLKSGTASVVCLLKNFYPREAKVQWKVDNALQSGNSQESVTEQDSKDSTYSLSSTLTLSKADYEKHKVYACEVTHQGLSSPVTKSFNRGEC
light 2: DIQMTQSPSSLSASVGDRVTITCRASENIYSFLAWYQQKPGKAPKLLIYNTKTLTEGVPSRFSGSGSGTDFTLTISSLQPEDFATYYCQHHYGIPLTFGGGTKVEIKRTVAAPSVFIFPPSDEQLKSGTASVVCLLNNFYPREAKVQWKVDNALQSGNSQESVTEQDSKDSTYSLSSTLTLSKADYEKHKVYACEVTHQGLSSPVTKSFNRGEC
notes: Tetravalent IgG1-like tandem-Fab molecule: anti-CD38 Fab, linker, humanized 09 anti-NKp46 Fab, hinge, IgG1 Fc; also called NKE2 WT; NKE2 WT-Fc

EC50 (read off the curve) [1]: ~0.3 µg/mL
EC50 (read off the curve) [2]: ~0.2 µg/mL
B2: NKE2 with mutant null Fc (bispecific antibody, human IgG1, kappa, L234A L235A)
heavy: not shown
light 1: B1 light 1
light 2: B1 light 2
notes: As NKE2 WT but with IgG1 L234A/L235A Fc; also called NKE2 Mut Fc (Fc silent); NKE2 MUT

binding result (human CD38 protein): binds
B3: humanized anti-CD38 antibody (antibody, V domains shown)
VH: QVQLVQSGAEVKKPGASVKVSCKASGYTFTSYWMQWVRQAPGQGLEWMGAIYPGDGDTRYTQKFKGRVTMTRDTSTSTVYMELSSLRSEDTAVYYCARERTTGAPRYFDVWGQGTLVTVSS
VL: DIQMTQSPSSLSASVGDRVTITCRASENIYSFLAWYQQKPGKAPKLLIYNTKTLTEGVPSRFSGSGSGTDFTLTISSLQPEDFATYYCQHHYGIPLTFGGGTKVEIK
notes: also called CD38-IgG1 L234A, L235A; CD38-IgG1 wildtype

Source: patent publication US20240199756A1 (CYTOVIA THERAPEUTICS, published 2024)
